Measurements taken from patent WO2024101382A1 (dated 2024).

Target: T1, Recombinant mouse LSR-Fc (mouse, UniProt Q99KG5 36-206, limits assumed)
T1 construct: not shown: Fc part
T1 sequence (looked up): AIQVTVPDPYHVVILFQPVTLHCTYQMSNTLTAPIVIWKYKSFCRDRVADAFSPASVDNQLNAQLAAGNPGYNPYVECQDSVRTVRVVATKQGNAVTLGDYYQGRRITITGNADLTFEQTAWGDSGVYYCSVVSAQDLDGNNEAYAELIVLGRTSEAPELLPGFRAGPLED
Test: ELISA, LSR-Fc coated on plate

binding result: binds
B1: Chicken mouse chimeric anti-LSR antibody (#27-6mF18) (antibody, V domains shown)
VH: AVTLDESGGGLQMPGGALSLVCRASGFDFSSYEMQWIRQAPGKGLEWVAGISGAGSGTRYGSAVKGRATISRDNGQSTVRLQLNNLRAEDTGIYFCARSSNIDAWGHGTEVTVST
VL: ALTQPASVSANLGGTVKITCSGGGRYAESYYYGWYQQKSPGSTPVTVIYWNDKRPSNIPSRFSGSLSGSTNTLTITGVQVEDEAVYFCGSYEDSRSAFGAGTTLTV
notes: Chicken-mouse chimeric antibody; also called anti-LSR monoclonal antibody #27-6 mF-18
